As a reminder, the IC50 is the concentration that gives 50% inhibition.

The source of these data is patent US20200024330A1.

What all share (assay): cell-based or functional assay
The target of assay [1] is HIV-1 Env of isolate MGRM-AG-008 (CRF_AG), on pseudovirus (HIV-1).
In assay [2] the target is HIV-1 JR-CSF Env N197A (HIV-1 (isolate JR-CSF)) (UniProt P20871).
Assay [3] deals with HIV-1 Env of isolate 98CN006 (HIV-1).
Assay [4] addresses HIV-1 Env of isolate CAAN.A2 (HIV-1).
For assay [5], the target named is HIV-1 JR-CSF Env D474A (HIV-1 (isolate JR-CSF)) (UniProt P20871).
Assay [6] has as its target HIV-1 Env of isolate MGRM-C-015 (HIV-1).
Assay [7] has as its target HIV-1 Env of isolate 92UG005 (HIV-1).
Assay [8] has as its target HIV-1 Env of isolate 92RW008 (HIV-1).
In assay [9] the target is HIV-1 Env of isolate MGRM-D-012 (HIV-1).
Assay [10] deals with HIV-1 Env of isolate MGRM-AE-004 (CRF01_AE), on pseudovirus (HIV-1).
The target in assay [11] is HIV-1 Env of isolate MGRM-D-002 (HIV-1).
The target of assay [12] is HIV-1 Env of isolate MGRM-F1-023 (subtype F), on pseudovirus (HIV-1).
Assay [13] has as its target HIV-1 Env of isolate MGRM-C-019 (HIV-1).
Assay [14] deals with HIV-1 Env of isolate 92TH021 (CRF01_AE), on pseudovirus (HIV-1).
Assay [15] deals with HIV-1 Env of isolate VLGCA1 (clade A), on pseudovirus (HIV-1).
Assay [16] addresses HIV-1 MGRM-C-027 envelope glycoprotein (Env) on pseudovirus (HIV-1).
Assay [17] addresses HIV-1 Env of isolate MGRM-Chronic-B-002 (HIV-1).
For assay [18], the target named is HIV-1 JR-CSF Env D113A (HIV-1 (isolate JR-CSF)) (UniProt P20871).
Assay [19] deals with HIV-1 Env of isolate MGRM-D-005 (HIV-1).
The target in assay [20] is HIV-1 Env of isolate MGRM-D-026 (subtype D), on pseudovirus (HIV-1).

5147_N06 (PGT-130) (antibody): the IC50, single-round pseudovirus neutralization is over 50 µg/mL in [1], 2.43 µg/mL in assay [10], 0.009 µg/mL in assay [14] and over 50 µg/mL in [15]. Besides, the Fold IC50 increase relative to wild-type in assay [2] was found to be 1.2 fold; in assay [5], 2 fold; in [18], 0.8 fold. Further, the concentration for half-maximal inhibition (IC50) is 0.258 µg/mL in assay [3]; over 50 µg/mL in [4]; 0.344 µg/mL in assay [6]; 0.959 µg/mL in assay [7]; over 50 µg/mL in assay [9]; 0.869 µg/mL in [11]. The half-inhibitory concentration (IC50) in [13] was 0.01 µg/mL; in assay [17], over 50 µg/mL; in [19], over 50 µg/mL. Moreover, the neutralization IC50 in assay [8] is 0.039 µg/mL. Besides, the figures for the IC50, pseudovirus neutralization in [12] and in [20] were 0.05 µg/mL and over 50 µg/mL, respectively. In addition, the IC50 (ug/ml), neutralizing activity in assay [16] was found to be 0.0052 µg/mL.
As for 5343_B08 (PGT-135) (antibody), the IC50, single-round pseudovirus neutralization in [1], in assay [10], in [14] and in assay [15] was over 50 µg/mL throughout. In addition, the Fold IC50 increase relative to wild-type in assay [2] worked out at 0.3 fold; in assay [5], 1.2 fold; in assay [18] it was 0.8 fold. Further, the IC50 is 0.429 µg/mL in assay [3]; 5.15 µg/mL in assay [4]; 0.104 µg/mL in assay [6]; over 50 µg/mL in assay [7]; over 50 µg/mL in assay [9]; over 50 µg/mL in [11]. Moreover, the concentration for half-maximal inhibition (IC50) in assay [13] was 0.264 µg/mL; in assay [17] it was over 50 µg/mL; in assay [19] it was over 50 µg/mL. Also, the neutralization IC50 in assay [8] turned out to be 1.42 µg/mL. Also, the figures for the IC50, pseudovirus neutralization in assay [12] and in [20] were 0.088 µg/mL and over 50 µg/mL, respectively.
